In EP4389215A1 (Consejo Superior De Investigaciones Científicas, dated 2024):

Key:
[1] = target: prion-like domain (PLD) of human TDP-43 (TDP-43 274-414), unmodified (human) (UniProt Q13148); assay: cell-based or functional assay
[2] = target: prion-like domain (PLD) of human TDP-43 (TDP-43 274-414), unmodified (human) (UniProt Q13148); assay: 15N CPMG relaxation dispersion, 200 µM PLD, region 321-343; self-assembly
[3] = target: the molecule itself; assay: cell-based or functional assay

t1/2 (h) of ThT aggregation, 10 µM PLD monomer, 0 % PLD seeds [1]	t1/2 (h) of ThT aggregation, 10 µM PLD monomer, 0.1 % PLD seeds [1]	t1/2 (h) of ThT aggregation, 10 µM PLD monomer, 0.5 % PLD seeds [1]	t1/2 (h) of ThT aggregation, 10 µM PLD monomer, 1 % PLD seeds [1]	kex (exchange rate, 15N CPMG) [2]	Molecule	t1/2 (h) of ThT aggregation, 10 µM MetO PLD monomer, 0 % MetO PLD seeds [3]	t1/2 (h) of ThT aggregation, 10 µM MetO PLD monomer, 0.1 % MetO PLD seeds [3]	t1/2 (h) of ThT aggregation, 10 µM MetO PLD monomer, 0.5 % MetO PLD seeds [3]	t1/2 (h) of ThT aggregation, 10 µM MetO PLD monomer, 1 % MetO PLD seeds [3]
4.87 h	4.99 h	2.88 h	2.86 h	> 2000 s⁻¹	prion-like domain (PLD) of human TDP-43 (TDP-43 274-414), unmodified (from UniProt Q13148 274-414)				
					MetO PLD (MetO-PLD polypeptide of the invention; SEQ ID NO: 2 with oxidized methionine residues) (other, methionine sulfoxide at all Met residues (M307, M311, M322, M323, M336, M337, M339, M359, M405, M414, numbered on full human TDP-43, SEQ ID NO: 3); full MetO validated by mass spectrometry and NMR (M414 not detected by MS)) GRFGGNPGGFGNQGGFGNSRGGGAGLGNNQGSNMGGGMNFGAFSINPAMMAAAQAALQSSWGMMGMLASQQNQSGPSGNNQNQGNMQREPNQAFGSGNNSYSGSNSGAAIGWGSASNAGSGSGFNGGFGSSMDSKSSGWGM	54.9 h	38.3 h	18.7 h	18 h
